This is an account of results in publication PMC4222680, “A Germline Polymorphism of Thymine DNA Glycosylase Induces Genomic Instability and Cellular Transformation”.

One series deals with TDG WT (human, UniProt Q13569 1-410). The series is described as follows: EMSA; 20 mM HEPES pH 7.3, 1 mM EDTA, 10 mM (NH4)2SO4, 1 mM DTT, 0.2% Tween-20, 30 mM KCl; 2 nM DNA, 30 min at room temperature; 6% native PAGE at 4 C. To be noted: protein: recombinant; tags: N-terminal 6xHis (pET28a); label: 5'-32P on the template oligonucleotide; blunt. For orientation: Mobility shift assays separate free from complexed probe on a gel.

In the next series the target is TDG G199S (human (rs4135113 variant), UniProt Q13569 1-410, G199S). The series is described as above. The settings on record: protein: recombinant; tags: N-terminal 6xHis (pET28a); label: 5'-32P on the template oligonucleotide; blunt.
TDG G199S, sequence (Q13569 whole entry G199S): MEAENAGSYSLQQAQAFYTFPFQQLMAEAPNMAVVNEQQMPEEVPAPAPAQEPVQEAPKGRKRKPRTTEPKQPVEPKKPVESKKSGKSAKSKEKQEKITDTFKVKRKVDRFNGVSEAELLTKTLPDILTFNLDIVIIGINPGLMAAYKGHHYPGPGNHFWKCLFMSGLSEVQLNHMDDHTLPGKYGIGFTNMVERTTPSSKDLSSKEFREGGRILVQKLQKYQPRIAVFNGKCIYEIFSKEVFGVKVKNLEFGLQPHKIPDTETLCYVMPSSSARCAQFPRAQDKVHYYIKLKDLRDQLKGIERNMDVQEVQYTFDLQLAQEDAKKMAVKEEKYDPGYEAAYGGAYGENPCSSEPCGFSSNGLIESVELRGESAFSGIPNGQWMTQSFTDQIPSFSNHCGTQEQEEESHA

TDG WT, sequence (Q13569 whole entry): as the sequence (Q13569 whole entry G199S) above, with S199G counted along it

B1: 28-mer 5-FU:A (dsDNA)
DNA 1: CAGCTCTGTACATGAGCAGTGGTGACAC
DNA 2: GTGTCACCACTGCTCAUGTACAGAGCTG
modifications: 5-fluorouracil (X, written U) at position 17 of strand 2, opposite A12 of strand 1
B1: the Kd with TDG WT was found to be 77 ± 13 nM; with TDG G199S, 41 ± 5 nM.

The Kd is a measure of binding affinity in units of concentration.
